Results taken from PMC10721843.

Molecular target: T1, Human full-length TOP2B (topoisomerase II beta) (human), Q02880
T1 chain: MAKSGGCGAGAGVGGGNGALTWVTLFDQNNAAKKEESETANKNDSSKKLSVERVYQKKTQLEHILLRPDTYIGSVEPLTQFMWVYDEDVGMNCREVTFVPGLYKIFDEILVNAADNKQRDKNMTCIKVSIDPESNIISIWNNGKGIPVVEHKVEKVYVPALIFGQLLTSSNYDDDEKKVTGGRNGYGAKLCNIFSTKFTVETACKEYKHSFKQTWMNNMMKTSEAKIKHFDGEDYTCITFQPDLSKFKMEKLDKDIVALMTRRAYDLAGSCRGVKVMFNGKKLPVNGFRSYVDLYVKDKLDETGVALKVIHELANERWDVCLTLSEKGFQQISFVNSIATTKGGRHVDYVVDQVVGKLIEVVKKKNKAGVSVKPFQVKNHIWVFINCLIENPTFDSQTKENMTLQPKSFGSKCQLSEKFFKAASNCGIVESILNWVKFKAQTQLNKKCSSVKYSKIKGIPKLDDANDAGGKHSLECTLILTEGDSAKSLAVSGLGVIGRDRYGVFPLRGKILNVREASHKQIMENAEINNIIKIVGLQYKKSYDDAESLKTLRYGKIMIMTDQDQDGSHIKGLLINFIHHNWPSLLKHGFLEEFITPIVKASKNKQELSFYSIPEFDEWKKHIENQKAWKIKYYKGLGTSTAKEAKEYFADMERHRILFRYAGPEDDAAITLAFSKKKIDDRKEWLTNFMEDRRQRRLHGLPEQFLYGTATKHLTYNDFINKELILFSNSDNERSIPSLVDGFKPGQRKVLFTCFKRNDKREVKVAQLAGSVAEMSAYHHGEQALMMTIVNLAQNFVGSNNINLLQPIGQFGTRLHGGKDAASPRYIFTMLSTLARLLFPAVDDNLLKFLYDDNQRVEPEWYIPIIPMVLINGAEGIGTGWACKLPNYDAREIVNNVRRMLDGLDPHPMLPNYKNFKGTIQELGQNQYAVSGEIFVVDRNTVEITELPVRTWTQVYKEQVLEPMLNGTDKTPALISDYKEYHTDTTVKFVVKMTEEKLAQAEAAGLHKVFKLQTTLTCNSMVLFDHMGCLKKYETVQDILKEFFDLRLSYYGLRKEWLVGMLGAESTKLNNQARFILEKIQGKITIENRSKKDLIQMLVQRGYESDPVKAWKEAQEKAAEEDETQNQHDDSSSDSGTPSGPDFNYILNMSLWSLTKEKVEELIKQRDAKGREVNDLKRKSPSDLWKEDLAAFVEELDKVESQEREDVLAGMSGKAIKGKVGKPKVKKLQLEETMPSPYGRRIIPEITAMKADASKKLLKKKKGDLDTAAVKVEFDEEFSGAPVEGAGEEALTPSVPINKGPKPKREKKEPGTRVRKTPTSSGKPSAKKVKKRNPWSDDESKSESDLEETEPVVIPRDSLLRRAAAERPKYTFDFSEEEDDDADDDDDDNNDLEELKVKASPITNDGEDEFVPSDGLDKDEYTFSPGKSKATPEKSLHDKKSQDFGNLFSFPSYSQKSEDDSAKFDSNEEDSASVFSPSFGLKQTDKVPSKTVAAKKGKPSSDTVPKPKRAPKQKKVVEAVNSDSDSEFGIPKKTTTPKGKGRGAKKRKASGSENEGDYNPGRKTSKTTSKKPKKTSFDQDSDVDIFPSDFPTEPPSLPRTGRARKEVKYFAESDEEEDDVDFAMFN
Experiment: cryo-EM structure; 8.3 uM TOP2B, 16.7 uM EGR1 TSS dsDNA (50 bp, -30 to +20) and 1.67 uM etoposide in 20 mM HEPES pH 8.0, 5 mM KCl, 5 mM MgCl2, 0.5 mM ATP; C2 symmetry imposed in 3D refinement (also reconstructed without it)
Conditions: remark: other sources report otherwise

- stoichiometry N: 2
B1: Human full-length TOP2B (topoisomerase II beta), Q02880 1-1626 (enzyme)
chain: MAKSGGCGAGAGVGGGNGALTWVTLFDQNNAAKKEESETANKNDSSKKLSVERVYQKKTQLEHILLRPDTYIGSVEPLTQFMWVYDEDVGMNCREVTFVPGLYKIFDEILVNAADNKQRDKNMTCIKVSIDPESNIISIWNNGKGIPVVEHKVEKVYVPALIFGQLLTSSNYDDDEKKVTGGRNGYGAKLCNIFSTKFTVETACKEYKHSFKQTWMNNMMKTSEAKIKHFDGEDYTCITFQPDLSKFKMEKLDKDIVALMTRRAYDLAGSCRGVKVMFNGKKLPVNGFRSYVDLYVKDKLDETGVALKVIHELANERWDVCLTLSEKGFQQISFVNSIATTKGGRHVDYVVDQVVGKLIEVVKKKNKAGVSVKPFQVKNHIWVFINCLIENPTFDSQTKENMTLQPKSFGSKCQLSEKFFKAASNCGIVESILNWVKFKAQTQLNKKCSSVKYSKIKGIPKLDDANDAGGKHSLECTLILTEGDSAKSLAVSGLGVIGRDRYGVFPLRGKILNVREASHKQIMENAEINNIIKIVGLQYKKSYDDAESLKTLRYGKIMIMTDQDQDGSHIKGLLINFIHHNWPSLLKHGFLEEFITPIVKASKNKQELSFYSIPEFDEWKKHIENQKAWKIKYYKGLGTSTAKEAKEYFADMERHRILFRYAGPEDDAAITLAFSKKKIDDRKEWLTNFMEDRRQRRLHGLPEQFLYGTATKHLTYNDFINKELILFSNSDNERSIPSLVDGFKPGQRKVLFTCFKRNDKREVKVAQLAGSVAEMSAYHHGEQALMMTIVNLAQNFVGSNNINLLQPIGQFGTRLHGGKDAASPRYIFTMLSTLARLLFPAVDDNLLKFLYDDNQRVEPEWYIPIIPMVLINGAEGIGTGWACKLPNYDAREIVNNVRRMLDGLDPHPMLPNYKNFKGTIQELGQNQYAVSGEIFVVDRNTVEITELPVRTWTQVYKEQVLEPMLNGTDKTPALISDYKEYHTDTTVKFVVKMTEEKLAQAEAAGLHKVFKLQTTLTCNSMVLFDHMGCLKKYETVQDILKEFFDLRLSYYGLRKEWLVGMLGAESTKLNNQARFILEKIQGKITIENRSKKDLIQMLVQRGYESDPVKAWKEAQEKAAEEDETQNQHDDSSSDSGTPSGPDFNYILNMSLWSLTKEKVEELIKQRDAKGREVNDLKRKSPSDLWKEDLAAFVEELDKVESQEREDVLAGMSGKAIKGKVGKPKVKKLQLEETMPSPYGRRIIPEITAMKADASKKLLKKKKGDLDTAAVKVEFDEEFSGAPVEGAGEEALTPSVPINKGPKPKREKKEPGTRVRKTPTSSGKPSAKKVKKRNPWSDDESKSESDLEETEPVVIPRDSLLRRAAAERPKYTFDFSEEEDDDADDDDDDNNDLEELKVKASPITNDGEDEFVPSDGLDKDEYTFSPGKSKATPEKSLHDKKSQDFGNLFSFPSYSQKSEDDSAKFDSNEEDSASVFSPSFGLKQTDKVPSKTVAAKKGKPSSDTVPKPKRAPKQKKVVEAVNSDSDSEFGIPKKTTTPKGKGRGAKKRKASGSENEGDYNPGRKTSKTTSKKPKKTSFDQDSDVDIFPSDFPTEPPSLPRTGRARKEVKYFAESDEEEDDVDFAMFN
